For this test, the target named is T1, IL-18Rα, human (human, UniProt Q13478 19-541).
T1 construct: whole, on cells; Detected on human NK cells with mouse monoclonal anti-IL-18Rα (Clone 70625; R&D Systems); also called IL-1R5/IL-18R
T1 sequence (looked up): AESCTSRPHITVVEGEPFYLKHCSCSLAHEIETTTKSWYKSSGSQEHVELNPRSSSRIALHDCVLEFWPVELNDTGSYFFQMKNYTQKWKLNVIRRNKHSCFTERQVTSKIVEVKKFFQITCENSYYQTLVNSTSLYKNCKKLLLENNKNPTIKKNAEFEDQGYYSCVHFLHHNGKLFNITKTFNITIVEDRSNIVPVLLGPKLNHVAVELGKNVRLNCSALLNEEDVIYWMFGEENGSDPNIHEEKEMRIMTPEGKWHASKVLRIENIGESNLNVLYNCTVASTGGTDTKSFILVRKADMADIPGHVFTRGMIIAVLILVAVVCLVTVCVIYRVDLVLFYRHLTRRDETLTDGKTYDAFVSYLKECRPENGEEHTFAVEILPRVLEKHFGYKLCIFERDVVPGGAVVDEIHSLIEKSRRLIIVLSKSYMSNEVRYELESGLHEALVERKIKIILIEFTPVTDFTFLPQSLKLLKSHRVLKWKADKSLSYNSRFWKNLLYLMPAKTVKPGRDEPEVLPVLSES
The experiment in a line: STED microscopy of human NK cells stimulated with IL-18, co-stained with anti-IL-1R8 and anti-IL-18Rα antibodies. On the procedure: Human NK cells were enriched and left to adhere on poly-D-lysine (Sigma-Aldrich)-coated coverslips, stimulated with IL-18 (50 ng ml⁻¹; 1 min, 5 min, 10 min), fixed with 4% PFA, incubated with 5% normal donkey serum (Sigma-Aldrich), 2% BSA, 0.05% Tween in PBS2+ (pH 7.4) (blocking buffer), and then with biotin-conjugated goat polyclonal anti-human IL-1R8 antibody or biotin-conjugated normal goat IgG (all from R&D Systems) and mouse monoclonal anti-IL-18Rα (Clone 70625; R&D Systems) or mouse IgG1 (Invitrogen), all diluted at 5 μg ml⁻¹ in blocking buffer, followed by Alexa Fluor 488-conjugated donkey anti-goat IgG antibody and Alexa Fluor 555 donkey anti-mouse IgG antibody (both from Molecular Probes). Mowiol was used as mounting medium. STED xyz images were acquired in a unidirectional mode with a Leica SP8 STED3X confocal microscope system. Alexa Fluor 488 was excited with a 488 nm argon laser and emission collected from 505 to 550 nm applying a gating between 0.4 and 7 ns to avoid collection of reflection and autofluorescence. Alexa Fluor 555 was excited with a 555/547 nm-tuned white light laser and emission collected from 580 to 620 nm. Line sequential acquisition was applied to avoid fluorescence overlap. The 660 nm CW-depletion laser (80% of power) was used for both excitations. […]

B1: Interleukin-1 receptor 8 (IL-1R8), human (receptor)
chain: MPGVCDRAPDFLSPSEDQVLRPALGSSVALNCTAWVVSGPHCSLPSVQWLKDGLPLGIGGHYSLHEYSWVKANLSEVLVSSVLGVNVTSTEVYGAFTCSIQNISFSSFTLQRAGPTSHVAAVLASLLVLLALLLAALLYVKCRLNVLLWYQDAYGEVEINDGKLYDAYVSYSDCPEDRKFVNFILKPQLERRRGYKLFLDDRDLLPRAEPSADLLVNLSRCRRLIVVLSDAFLSRAWCSHSFREGLCRLLELTRRPIFITFEGQRRDPAHPALRLLRQHRHLVTLLLWRPGSVTPSSDFWKEVQLALPRKVQYRPVEGDPQTQLQDDKDPMLILRGRVPEGRALDSEVDPDPEGDLGVRGPVFGEPSAPPHTSGVSLGESRSSEVDVSDLGSRNYSARTDFYCLVSKDDM
notes: Endogenous IL-1R8 on human primary NK cells; NP_001128525.1, NP_001128526.1, NP_068577.2); also called SIGIRR; single immunoglobulin IL-1R-related receptor
In the case of B1, the binding result is on record as “binds”.

The values above are taken from patent US20200281977A1 (HUMANITAS MIRASOLE S P A, published 2020).
